Laboratory results from patent publication US20200216495A1 (ADRX, published 2020).
“And” between values parts separate entries of the source, which are not always exact repeats. Identical values can stand only once. Square brackets hold non-standard residues; d marks the D form. Ends that are not written are not given here. dCit = NC(=O)NCCC[C@@H](N)C(=O)O; dNle = CCCC[C@@H](N)C(=O)O

Molecular target: Ac-VQIINK-NH2 (SEQ ID NO: 23) (N-terminal acetyl (Ac); C-terminal amide (NH2))
Assay: cell-based or functional assay

| Binder | VQIINK Inhibition IC50 |
| --- | --- |
| [dL][dK][dI][dY][dI][dH][dY] [lkiyihy] | 0.17 µm |
| [dW][dE][dL][dK][dV][dR][dW] [welkvrw] | 0.26 µm |
| [dW][dR][dL][dR][dV][dR][dW][dW] [wrlrvrww] | 0.79 µm |
| [dF][dR][dL][dK][dI][dR][dW] [frlkirw] | 0.69 µm |
| [dF][dR][dL][dK][dV][dR][dW][dW] [frlkvrww] | 0.76 µm |
| [dL][dK][dI][dE][dI][dH][dY] [lkieihy] | 0.65 µm |
| [dL][dE][dI][dR][dI][dH][dY] [leirihy] | 0.77 µm |
| [dW][dK][dV][dK][dI][dQ][dY][dH] [wkvkiqyh] | 0.75 µm |
| [dL][dK][dI][dR][dI][dCit][dY] [lkirizy] | 0.76 µm |
| [dL][dK][dI][dNle][dI][dH][dY] [lkiuihy] | 0.26 µm |
| [dL][dR][dL][dK][dV][dR][dW][dW] [lrlkvrww] | 0.67 µm |
| [dW][dN][dL][dK][dV][dR][dW] [wnlkvrw] | 0.41 µm |

Molecular target: Tau40 P301L protein (human)
Assay: cell-based or functional assay

| Binder | IC50, Tau40 assay (ThT) |
| --- | --- |
| [dW][dK][dL][dK][dL][dW][dW][dW] [wklklwww (PEPTIDE ID NO: 14)] | 0.94 µM |
| [dW][dR][dL][dR][dI][dM][dW] [wrlrimw (PEPTIDE ID NO: 452)] | 0.54 µM |
| [dL][dK][dL][dR][dI][dR][dH][dH] [lklrirhh (PEPTIDE ID NO: 415)] | 1.01 µM |
| [dL][dK][dI][dR][dI][dH][dY][dL] [lkirihyl (PEPTIDE ID NO: 193)] | 0.65 µM |
| [dW][dR][dL][dR][dV][dR][dW][dW] [wrlrvrww (PEPTIDE ID NO: 238)] | 1 µM |
| [dL][dK][dI][dW][dI][dY][dY][dH] [lkiwiyyh (PEPTIDE ID NO: 237)] | 0.97 µM |
| [dF][dK][dL][dK][dI][dK][dW] [fklkikw (PEPTIDE ID NO: 132)] | 1.08 µM and 1.1 µM |
| [dW][dR][dL][dK][dE][dR][dW][dW] [wrlkerww (PEPTIDE ID NO: 241)] | 1.01 µM |
| [dM][dR][dL][dR][dI][dH][dW] [mrlrihw (PEPTIDE ID NO: 242)] | 1.01 µM |
| [dW][dW][dR][dL][dK][dV][dR][dW] [wwrlkvrw (PEPTIDE ID NO: 234)] | 0.93 µM |
| [dL][dR][dI][dR][dL][dH][dY][dH] [lrirlhyh (PEPTIDE ID NO: 420)] | 0.97 µM |
| [dF][dK][dL][dK][dL][dR][dW] [fklklrw (PEPTIDE ID NO: 413)] | 1.05 µM |
| [dL][dK][dI][dR][dI][dH][dY] [lkirihy (PEPTIDE ID NO: 245)] | 1.04 µM |
| [dW][dR][dL][dK][dV][dA][dW] [wrlkvaw (PEPTIDE ID NO: 248)] | 1.08 µM |
| [dL][dK][dI][dR][dI][dH][dL][dH] [lkirihlh (PEPTIDE ID NO: 240)] | 1 µM |
| [dF][dK][dL][dR][dL][dR][dH][dW] [fklrlrhw (PEPTIDE ID NO: 123)] | 1.07 µM |
| [dW][dW][dL][dR][dI][dH][dW] [wwlrihw (PEPTIDE ID NO: 425)] | 0.94 µM |
| [dL][dK][dI][dR][dI][dCit][dY] [lkirizy (PEPTIDE ID NO: 244)] | 1.03 µM |
| [dL][dK][dL][dH][dL][dH][dF][dH] [lklhlhfh (PEPTIDE ID NO: 434)] | 1.01 µM |
| [dW][dR][dL][dR][dI][dH][dM] [wrlrihm (PEPTIDE ID NO: 453)] | 0.58 µM |
| [dL][dR][dI][dK][dI][dR][dF][dH] [lrikirfh (PEPTIDE ID NO: 421)] | 0.97 µM |
| [dF][dL][dK][dI][dR][dI][dH][dY] [flkirihy (PEPTIDE ID NO: 247)] | 1.04 µM |
| [dL][dK][dI][dK][dI][dH][dY] [lkikihy (PEPTIDE ID NO: 233)] | 0.93 µM |
| G[dL][dK][dI][dR][dI][dH][dY] [glkirihy (PEPTIDE ID NO: 236)] | 0.96 µM |
| [dW][dR][dM][dR][dI][dH][dW] [wrmrihw (PEPTIDE ID NO: 246)] | 1.04 µM |
| [dT][dL][dK][dI][dR][dI][dH][dY] [tlkirihy (PEPTIDE ID NO: 235)] | 0.94 µM |
| [dL][dR][dI][dR][dI][dH][dY][dH] [lririhyh (PEPTIDE ID NO: 239)] | 1 µM |
| [dK][dL][dK][dI][dR][dI][dH][dY] [klkirihy (PEPTIDE ID NO: 243)] | 1.01 µM |
| [dL][dK][dI][dK][dL][dR][dH][dY] [lkiklrhy (PEPTIDE ID NO: 144)] | 1.09 µM |
